Test results reported in publication PMC9929448.

What was measured:
[1] = molecular target: BMP-2 N102D mutant, mature form (human)
[2] = molecular target: T1, Bone morphogenetic protein 2 (BMP-2), wild type, mature form (human)
T1 sequence (P12643 whole entry, looked up): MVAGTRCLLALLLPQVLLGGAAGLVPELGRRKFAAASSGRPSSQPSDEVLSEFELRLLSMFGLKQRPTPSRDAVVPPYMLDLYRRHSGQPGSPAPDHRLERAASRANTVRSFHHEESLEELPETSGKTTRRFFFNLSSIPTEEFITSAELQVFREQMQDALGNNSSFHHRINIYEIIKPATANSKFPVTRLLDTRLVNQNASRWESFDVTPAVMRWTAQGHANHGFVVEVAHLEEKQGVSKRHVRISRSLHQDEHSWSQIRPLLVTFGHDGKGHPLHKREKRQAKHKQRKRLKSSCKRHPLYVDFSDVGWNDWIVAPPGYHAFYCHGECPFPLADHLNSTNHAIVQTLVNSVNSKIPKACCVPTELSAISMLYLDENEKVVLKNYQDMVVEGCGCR

IC50 of Noggin (0.16 to 160 nM) on ALP activity and Alizarin Red staining (calcium deposition) of ATDC5 cells stimulated with 10 nM N102D BMP-2, day 7 [1]: 8 nM
IC50 of Noggin (0.16 to 160 nM) on ALP activity and Alizarin Red staining (calcium deposition) of ATDC5 cells stimulated with 10 nM WT BMP-2, day 7 [2]: 8 nM
B1: Noggin (residues 28-232) (natural protein)
chain: MQHYLHIRPAPSDNLPLVDLIEHPDPIFDPKEKDLNETLLRSLLGGHYDPGFMATSPPEDRPGGGGGAAGGAEDLAELDQLLRQRPSGAMPSEIKGLEFSEGLAQGKKQRLSKKLRRKLQMWLWSQTFCPVLYAWNDLGSRFWPRYVKVGSCFSKRSCSVPEGMVCKPSKSVHLTVLRWRCQRRGGQRCGWIPIQYPIISECKCSC
modifications: biotin (biotinylated Noggin in the BLI experiments); methionine oxidation, mainly on the N-terminal methionine, in part of the sample
